Numbering of substitutions follows the chain as printed.
What was measured:
Assay in all cases: SPR, KD relative to WT C2;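 note: biacore SPR at 37 °C, anti-C2 mAbs captured via immobilised goat anti-human IgG, C2 alanine or serine surface mutants as analytes, 1:1 model fitted, double-referenced sensograms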
human C2 D511A = target: T1, human C2 D511A (human, UniProt P06681 21-752)
T1 sequence: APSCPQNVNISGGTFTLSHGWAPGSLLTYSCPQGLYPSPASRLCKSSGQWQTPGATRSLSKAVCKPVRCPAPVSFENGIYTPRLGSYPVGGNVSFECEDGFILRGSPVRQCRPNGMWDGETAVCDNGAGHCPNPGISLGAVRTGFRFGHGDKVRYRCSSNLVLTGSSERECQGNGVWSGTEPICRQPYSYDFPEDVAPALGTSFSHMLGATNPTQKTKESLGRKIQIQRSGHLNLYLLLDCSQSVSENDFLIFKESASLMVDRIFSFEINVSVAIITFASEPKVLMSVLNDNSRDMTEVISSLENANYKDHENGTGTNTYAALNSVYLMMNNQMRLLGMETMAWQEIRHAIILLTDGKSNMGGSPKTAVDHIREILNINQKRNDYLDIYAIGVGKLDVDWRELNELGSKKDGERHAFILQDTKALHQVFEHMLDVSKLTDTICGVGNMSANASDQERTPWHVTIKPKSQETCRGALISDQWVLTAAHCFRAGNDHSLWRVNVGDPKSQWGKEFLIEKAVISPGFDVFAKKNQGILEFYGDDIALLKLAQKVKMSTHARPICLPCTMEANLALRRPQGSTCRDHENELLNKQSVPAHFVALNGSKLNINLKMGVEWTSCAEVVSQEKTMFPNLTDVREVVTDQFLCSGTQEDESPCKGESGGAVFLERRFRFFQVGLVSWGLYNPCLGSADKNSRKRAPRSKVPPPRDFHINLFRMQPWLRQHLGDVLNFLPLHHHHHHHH

human C2 D404A = target: T2, human C2 D404A (human, UniProt P06681 21-752)
T2 sequence: T1 sequence with D384A, A491D

human C2 S428A = target: T3, human C2 S428A (human, UniProt P06681 21-752)
T3 sequence: T1 sequence with S408A, A491D

human C2 A472S = target: T4, human C2 A472S (human, UniProt P06681 21-752)
T4 sequence: T1 sequence with A452S, A491D

B1: RF16-226 (antibody, human IgG4 S228P, lambda)
heavy: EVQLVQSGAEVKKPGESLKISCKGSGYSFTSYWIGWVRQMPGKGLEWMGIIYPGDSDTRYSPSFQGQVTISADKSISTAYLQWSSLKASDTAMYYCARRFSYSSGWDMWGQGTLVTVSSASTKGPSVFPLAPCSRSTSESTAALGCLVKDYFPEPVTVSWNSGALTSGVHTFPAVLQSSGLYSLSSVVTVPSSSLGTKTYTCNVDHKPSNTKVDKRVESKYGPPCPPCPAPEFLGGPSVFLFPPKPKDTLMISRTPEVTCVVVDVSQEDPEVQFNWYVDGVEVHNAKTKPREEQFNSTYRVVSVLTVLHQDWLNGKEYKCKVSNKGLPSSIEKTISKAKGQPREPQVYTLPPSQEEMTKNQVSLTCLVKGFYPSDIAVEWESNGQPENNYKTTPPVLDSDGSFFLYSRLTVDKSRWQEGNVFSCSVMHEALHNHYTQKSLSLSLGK
light: SYELTQPPSVSVSPGQTARITCSGDALTSKYVAWYQQKSGLAPLLVIYEDTRRPSGIPAKFSGSSSGSVATLTISGAHGDDEADYYCYSTDASGHQRVFGGGTKLTVLSQPKAAPSVTLFPPSSEELQANKATLVCLISDFYPGAVTVAWKADGSPVKAGVETTKPSKQSNNKYAASSYLSLTPEQWKSHRSYSCQVTHEGSTVEKTVAPTECS
notes: pH-dependent anti-C2 antibody from a phage display library; also called WT
With B1 the Fold diff (human C2 D511A) was 3 fold, the Fold diff (human C2 D404A) was 1 fold and the Fold diff (human C2 S428A) was 2 fold. For the same binder, the Fold diff (human C2 A472S) was 5 fold.
